Here are results for one molecule from patent US20170209564A1.

This test deals with s127H1-t2 (Influenza A virus H1N1 A/Brisbane/59/2007). Conditions: remark: other sources report otherwise.

B1: monoclonal antibody CR6261 (antibody, V domains shown)
VH: EVQLVESGAEVKKPGSSVKVSCKASGGPFRSYAISWVRQAPGQGPEWMGGIIPIFGTTKYAPKFQGRVTITADDFAGTVYMELSSLRSEDTAMYYCAKHMGYQVRETMDVWGKGTTVTVSS
VL: QSVLTQPPSVSAAPGQKVTISCSGSSSNIGNDYVSWYQQLPGTAPKLLIYDNNKRPSGIPDRFSGSKSGTSATLGITGLQTGDEANYYCATWDRRPTAYVVFGGGTKLTVLG
Turning to B1, the Kd (in general, the free concentration of one partner at which half of the binding sites on the other are occupied at equilibrium, for simple one-to-one binding) is 3.5 nM.
